Results from PMC8297725.

Key:
[1] = target: Cys215 (UniProt position 215, PVVVHCSAGIG); test: kinetics; conditions: 25 °C; constant ionic strength buffer mix (value not stated); 50 mM sodium acetate, 100 mM Tris, 100 mM bis-Tris; steady-state turnover with the substrate pNPP
[2] = target: Asp181 (UniProt position 181, YTTWPDFGVPE); test: kinetics; conditions: 25 °C; constant ionic strength buffer mix (value not stated); 50 mM sodium acetate, 100 mM Tris, 100 mM bis-Tris; steady-state turnover with the substrate pNPP
[3] = target: Asp356 (UniProt position 356, VGNWPDQTAVS); test: kinetics; conditions: 25 °C; constant ionic strength buffer mix (value not stated); 50 mM sodium acetate, 100 mM Tris, 100 mM bis-Tris; steady-state turnover with the substrate pNPP
[4] = target: T1, Cys403 (UniProt position 403, RPVIHCRAGVG); test: kinetics; conditions: 25 °C; constant ionic strength buffer mix (value not stated); 50 mM sodium acetate, 100 mM Tris, 100 mM bis-Tris; steady-state turnover with the substrate pNPP
[5] = target: T1, Cys403; test: chemical modification; conditions: ligand-free enzyme
[6] = target: Asp181 (UniProt position 181, YGTWPDFGVPE); test: kinetics; conditions: 25 °C; constant ionic strength buffer mix (value not stated); 50 mM sodium acetate, 100 mM Tris, 100 mM bis-Tris; steady-state turnover with the substrate pNPP

| Substance | pKa [1] | pKa [2] | pKa [3] | pKa [4] | pKa [5] | pKa ([5]; cited from earlier work) | pKa [6] |
| --- | --- | --- | --- | --- | --- | --- | --- |
| Protein tyrosine phosphatase 1B (PTP1B), wild type (Homo sapiens) | 5.08 ± 0.20 | 6.44 ± 0.26 |  |  |  |  |  |
| YopH (Yersinia protein tyrosine phosphatase), wild type (Yersinia (species not stated in the article)) |  |  | 5.58 ± 0.34 | 5.02 ± 0.27 | 4.6 ± 0.2 | 4.67 ± 0.15 |  |
| PTP1B T177G (Homo sapiens; T177G) | 5.44 ± 0.37 |  |  |  |  |  | 6.37 ± 0.28 |
